Substrate: O=[N+]([O-])c1ccc(O[C@@H]2O[C@H](CO)[C@@H](O)[C@H](O)[C@H]2O)cc1
Test: purified protein
Conditions: 50 mM sodium acetate pH 5.5, 55 °C

B1: AoBgl (Aspergillus oryzae exo-β-(1,3) glucanase) (Aspergillus oryzae RIB40) (protein)
chain: SRLDPRASSFDYNGEKVRGVNLGGWLVLEPWITPSIFDAAGAEAVDEWSLTKILGKEEAEARLSAHWKSFVSAGDFQRMADAGLNHVRIPIGYWALGPLEGDPYVDGQLEYLDKAVEWAGAAGLKVLIDLHGAPGSQNGFDNSGRRGAIQWQQGDTVEQTLDAFDLLAERYLGSDTVAAIEAINEPNIPGGVDQGKLQEYYGSVYGIVNKYNAGTSVVYGDGFLPVESWNGFKTEGSKVVMDTHHYHMFDNGLIAMDIDSHIDAVCQFAHQHLEASDKPVIVGEWTGAVTDCAKYLNGKGNGARYDGSYAADKAIGDCSSLATGFVSKLSDEERSDMRRFIEAQLDAFELKSGWVFWTWKTEGAPGWDMSDLLEAGVFPTSPDDREFPKQC
- Km: 5.78 mM

— paper doi:10.1101/2024.06.05.597502v1
